Experimental data from EP2411513B1.

Target: CD11b/CD18 receptor on J774A.1 murine monocytes/macrophages (murine) (UniProt P05555)
Assay: cell-based or functional assay

## CyaA/233OVA/K860R/AC- (from UniProt J7QLC0 1-1706)
  Lysis of J774A.1 cells (% of AC-): 72 % of AC-
